Experimental data taken from US20190321401A1 (JUNO THERAPEUTICS, published 2019).

Columns and labels:
Assay in all cases: activation reporter or marker
[1] = target: T1, HPV 16 E7(11-19), single-substitution variant L5C (synthetic scanning library) peptide on HLA-A*02:01 (human)
T1 peptide: YMLDCQPET

[2] = target: T2, HPV 16 E7(11-19), single-substitution variant E8G (synthetic scanning library) peptide on HLA-A*02:01 (human)
T2 peptide: YMLDLQPGT

[3] = target: T3, HPV 16 E7(11-19), single-substitution variant Y1T (synthetic scanning library) peptide on HLA-A*02:01 (human)
T3 peptide: TMLDLQPET

[4] = target: T4, HPV 16 E7(11-19), single-substitution variant E8W (synthetic scanning library) peptide on HLA-A*02:01 (human)
T4 peptide: YMLDLQPWT

[5] = target: T5, HPV 16 E7(11-19), single-substitution variant L3A (synthetic scanning library) peptide on HLA-A*02:01 (human)
T5 peptide: YMADLQPET

[6] = target: T6, HPV 16 E7(11-19), single-substitution variant D4N (synthetic scanning library) peptide on HLA-A*02:01 (human)
T6 peptide: YMLNLQPET

[7] = target: T7, HPV 16 E7(11-19), single-substitution variant Y1A (synthetic scanning library) peptide on HLA-A*02:01 (human)
T7 peptide: AMLDLQPET

[8] = target: T8, HPV 16 E7(11-19), single-substitution variant E8R (synthetic scanning library) peptide on HLA-A*02:01 (human)
T8 peptide: YMLDLQPRT

[9] = target: T9, HPV 16 E7(11-19), single-substitution variant L5F (synthetic scanning library) peptide on HLA-A*02:01 (human)
T9 peptide: YMLDFQPET

[10] = target: T10, HPV 16 E7(11-19), single-substitution variant P7C (synthetic scanning library) peptide on HLA-A*02:01 (human)
T10 peptide: YMLDLQCET

[11] = target: T11, HPV 16 E7(11-19), single-substitution variant E8Q (synthetic scanning library) peptide on HLA-A*02:01 (human)
T11 peptide: YMLDLQPQT

[12] = target: T12, HPV 16 E7(11-19), single-substitution variant M2Q (synthetic scanning library) peptide on HLA-A*02:01 (human)
T12 peptide: YQLDLQPET

[13] = target: T13, HPV 16 E7(11-19), single-substitution variant E8H (synthetic scanning library) peptide on HLA-A*02:01 (human)
T13 peptide: YMLDLQPHT

[14] = target: T14, HPV 16 E7(11-19), single-substitution variant L3I (synthetic scanning library) peptide on HLA-A*02:01 (human)
T14 peptide: YMIDLQPET

[15] = target: T15, HPV 16 E7(11-19), single-substitution variant E8P (synthetic scanning library) peptide on HLA-A*02:01 (human)
T15 peptide: YMLDLQPPT

[16] = target: T16, HPV 16 E7(11-19), single-substitution variant Y1V (synthetic scanning library) peptide on HLA-A*02:01 (human)
T16 peptide: VMLDLQPET

[17] = target: T17, HPV 16 E7(11-19), single-substitution variant T9L (synthetic scanning library) peptide on HLA-A*02:01 (human)
T17 peptide: YMLDLQPEL

[18] = target: T18, HPV 16 E7(11-19), single-substitution variant E8T (synthetic scanning library) peptide on HLA-A*02:01 (human)
T18 peptide: YMLDLQPTT

[19] = target: T19, HPV 16 E7(11-19), single-substitution variant Y1W (synthetic scanning library) peptide on HLA-A*02:01 (human)
T19 peptide: WMLDLQPET

[20] = target: T20, HPV 16 E7(11-19), single-substitution variant T9I (synthetic scanning library) peptide on HLA-A*02:01 (human)
T20 peptide: YMLDLQPEI

[21] = target: T21, HPV 16 E7(11-19), single-substitution variant E8D (synthetic scanning library) peptide on HLA-A*02:01 (human)
T21 peptide: YMLDLQPDT

[22] = target: T22, HPV 16 E7(11-19), single-substitution variant E8M (synthetic scanning library) peptide on HLA-A*02:01 (human)
T22 peptide: YMLDLQPMT

[23] = target: T23, HPV 16 E7(11-19), single-substitution variant D4C (synthetic scanning library) peptide on HLA-A*02:01 (human)
T23 peptide: YMLCLQPET

[24] = target: T24, HPV 16 E7(11-19), single-substitution variant Y1M (synthetic scanning library) peptide on HLA-A*02:01 (human)
T24 peptide: MMLDLQPET

[25] = target: T25, HPV 16 E7(11-19), single-substitution variant E8I (synthetic scanning library) peptide on HLA-A*02:01 (human)
T25 peptide: YMLDLQPIT

Measured: binding result

B1: TCR 57 (TCR, V domains shown)
Valpha: TQLLEQSPQFLSIQEGENLTVYCNSSSVFSSLQWYRQEPGEGPVLLVTVVTGGEVKKLKRLTFQFGDARKDSSLHITAAQPGDTGLYLCAGARNFNKFYFGSGTKLNVKP
Vbeta: GAVVSQHPSWVICKSGTSVKIECRSLDFQATTMFWYRQFPKQSLMLMATSNEGSKATYEQGVEKDKFLINHASLTLSTLTVTSAHPEDSSFYICSARSWRGGLEQFFGPGTRLTVL
recognises: all assays above
